Data as given in article PMC9482650, “Quantitative fragmentomics allow affinity mapping of interactomes” (Nature Communications, 2022).

Experiments:
Assay in all cases: holdup assay
Parameters in all cases: key: below the threshold = too weak to quantify, mostly under pKd 3.1 to 4
APBA1_1, Q02410 = biological target: T1, APBA1_1, Q02410
T1 sequence (Q02410 651-752, limits assumed, looked up): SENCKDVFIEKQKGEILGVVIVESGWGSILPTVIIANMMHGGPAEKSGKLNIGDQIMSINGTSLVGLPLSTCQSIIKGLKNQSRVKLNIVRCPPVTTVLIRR

APBA1_2, Q02410 = biological target: T2, APBA1_2, Q02410
T2 sequence (Q02410 742-832, limits assumed, looked up): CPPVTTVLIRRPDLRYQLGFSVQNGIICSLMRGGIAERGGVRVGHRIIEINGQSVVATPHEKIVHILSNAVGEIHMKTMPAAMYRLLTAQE

ARHGEF11, O15085 = biological target: T3, ARHGEF11, O15085
T3 sequence (O15085 42-136, limits assumed, looked up): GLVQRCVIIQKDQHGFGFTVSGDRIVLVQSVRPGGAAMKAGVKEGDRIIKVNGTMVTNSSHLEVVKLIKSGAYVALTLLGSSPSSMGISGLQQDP

DLG3_2, Q92796 = biological target: T4, DLG3_2, Q92796
T4 sequence (Q92796 221-321, limits assumed, looked up): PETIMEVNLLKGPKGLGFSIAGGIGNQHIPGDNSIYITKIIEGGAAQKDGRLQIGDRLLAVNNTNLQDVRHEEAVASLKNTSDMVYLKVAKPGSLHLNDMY

DVL3, Q92997 = biological target: T5, DVL3, Q92997
T5 sequence (Q92997 244-331, limits assumed, looked up): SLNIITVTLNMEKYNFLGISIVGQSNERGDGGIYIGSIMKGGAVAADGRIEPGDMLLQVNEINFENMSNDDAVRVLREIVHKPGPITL

FRMPD3, Q5JV73 = biological target: FRMPD3, Q5JV73
Sequence of FRMPD3, Q5JV73 (Q5JV73 12-100): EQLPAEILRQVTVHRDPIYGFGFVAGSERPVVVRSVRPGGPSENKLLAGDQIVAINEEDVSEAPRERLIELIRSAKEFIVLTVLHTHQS

GRASP, Q7Z6J2 = biological target: GRASP, Q7Z6J2
Sequence of GRASP, Q7Z6J2 (Q7Z6J2 96-193): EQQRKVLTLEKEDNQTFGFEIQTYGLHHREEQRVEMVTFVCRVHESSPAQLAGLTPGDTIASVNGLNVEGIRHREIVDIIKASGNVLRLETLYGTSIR

GRIP1_3, Q9Y3R0 = biological target: T6, GRIP1_3, Q9Y3R0
T6 sequence (Q9Y3R0 247-346, limits assumed, looked up): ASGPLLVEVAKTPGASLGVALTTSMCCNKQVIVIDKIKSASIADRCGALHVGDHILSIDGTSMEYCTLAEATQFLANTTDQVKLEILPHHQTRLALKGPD

GRIP1_5, Q9Y3R0 = biological target: T7, GRIP1_5, Q9Y3R0
T7 sequence (Q9Y3R0 568-668, limits assumed, looked up): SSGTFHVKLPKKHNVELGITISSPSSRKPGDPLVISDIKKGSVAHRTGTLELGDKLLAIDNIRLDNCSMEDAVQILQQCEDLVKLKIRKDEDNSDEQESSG

GRIP2_4, Q9C0E4 = biological target: GRIP2_4, Q9C0E4
Sequence of GRIP2_4, Q9C0E4 (Q9C0E4 446-548): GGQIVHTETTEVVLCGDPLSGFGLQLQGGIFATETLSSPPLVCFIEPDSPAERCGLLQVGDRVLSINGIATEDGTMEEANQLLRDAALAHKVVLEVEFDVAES

GRIP2_5, Q9C0E4 = biological target: GRIP2_5, Q9C0E4
Sequence of GRIP2_5, Q9C0E4 (Q9C0E4 544-642): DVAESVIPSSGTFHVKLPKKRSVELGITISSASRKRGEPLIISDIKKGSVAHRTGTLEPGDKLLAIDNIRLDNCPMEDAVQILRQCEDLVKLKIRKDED

Inadl_4, Q8NI35 = biological target: Inadl_4, Q8NI35
Sequence of Inadl_4, Q8NI35 (Q8NI35 547-651): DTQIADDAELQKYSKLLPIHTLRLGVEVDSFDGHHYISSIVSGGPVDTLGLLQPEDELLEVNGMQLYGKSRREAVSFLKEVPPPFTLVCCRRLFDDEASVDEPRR

LIN7B, Q9HAP6 = biological target: T8, LIN7B, Q9HAP6
T8 sequence (Q9HAP6 88-185, limits assumed, looked up): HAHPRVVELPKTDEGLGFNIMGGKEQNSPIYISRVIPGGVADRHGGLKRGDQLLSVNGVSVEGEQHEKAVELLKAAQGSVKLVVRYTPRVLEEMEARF

LNX1_1, Q8TBB1 = biological target: LNX1_1, Q8TBB1
Sequence of LNX1_1, Q8TBB1 (Q8TBB1 261-371): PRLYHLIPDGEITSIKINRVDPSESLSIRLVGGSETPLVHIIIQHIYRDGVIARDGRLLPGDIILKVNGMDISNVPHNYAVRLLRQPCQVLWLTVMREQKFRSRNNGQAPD

LNX1_3, Q8TBB1 = biological target: LNX1_3, Q8TBB1
Sequence of LNX1_3, Q8TBB1 (Q8TBB1 500-596): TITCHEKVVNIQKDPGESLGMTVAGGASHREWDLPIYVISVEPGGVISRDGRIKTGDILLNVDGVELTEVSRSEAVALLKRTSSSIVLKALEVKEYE

PARD3B_1, Q8TEW8 = biological target: T9, PARD3B_1, Q8TEW8
T9 sequence (Q8TEW8 196-299, limits assumed, looked up): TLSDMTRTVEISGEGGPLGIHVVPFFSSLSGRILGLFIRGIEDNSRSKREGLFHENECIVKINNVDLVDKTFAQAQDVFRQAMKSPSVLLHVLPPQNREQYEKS

PARD3_3, Q8TEW0 = biological target: PARD3_3, Q8TEW0
Sequence of PARD3_3, Q8TEW0 (Q8TEW0 582-685): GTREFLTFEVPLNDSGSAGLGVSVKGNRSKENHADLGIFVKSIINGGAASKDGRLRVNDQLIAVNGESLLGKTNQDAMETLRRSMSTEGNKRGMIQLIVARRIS

PDZD7_3, Q9H5P4 = biological target: T10, PDZD7_3, Q9H5P4
T10 sequence (Q9H5P4 857-944, limits assumed, looked up): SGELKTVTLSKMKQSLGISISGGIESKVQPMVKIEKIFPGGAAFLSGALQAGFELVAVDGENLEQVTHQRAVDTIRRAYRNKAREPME

PDZRN3_1, Q9UPQ7 = biological target: T11, PDZRN3_1, Q9UPQ7
T11 sequence (Q9UPQ7 244-349, limits assumed, looked up): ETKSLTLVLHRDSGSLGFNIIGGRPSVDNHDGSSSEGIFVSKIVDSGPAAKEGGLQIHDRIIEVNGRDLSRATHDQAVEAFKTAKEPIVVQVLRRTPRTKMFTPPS

RAPGEF6, Q8TEU7 = biological target: T12, RAPGEF6, Q8TEU7
T12 sequence (Q8TEU7 525-625, limits assumed, looked up): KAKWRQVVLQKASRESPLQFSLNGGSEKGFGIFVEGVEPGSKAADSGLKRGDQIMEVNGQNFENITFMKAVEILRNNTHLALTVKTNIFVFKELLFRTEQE

SCRIB_2, Q14160 = biological target: SCRIB_2, Q14160
Sequence of SCRIB_2, Q14160 (Q14160 857-960): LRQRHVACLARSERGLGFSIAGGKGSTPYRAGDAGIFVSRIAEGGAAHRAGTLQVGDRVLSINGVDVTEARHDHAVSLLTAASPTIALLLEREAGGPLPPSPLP

SNTG2, Q9NY99 = biological target: T13, SNTG2, Q9NY99
T13 sequence (Q9NY99 68-166, limits assumed, looked up): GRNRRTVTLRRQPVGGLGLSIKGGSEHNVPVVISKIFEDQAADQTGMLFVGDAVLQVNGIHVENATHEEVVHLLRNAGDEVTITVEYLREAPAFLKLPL

TX1BP3, O14907 = biological target: T14, TX1BP3, O14907
T14 sequence (O14907 10-122, limits assumed, looked up): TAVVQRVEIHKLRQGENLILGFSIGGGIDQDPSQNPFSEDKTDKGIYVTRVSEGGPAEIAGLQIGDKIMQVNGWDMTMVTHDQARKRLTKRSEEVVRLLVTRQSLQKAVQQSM

[1] = plain residues with an end cap or a label only (N-terminal biotin on a linker: ado-ado)
[2] = plain residues with an end cap or a label only (N-terminal biotin on a linker: ttds)

ELKAEDEVQI [DCHS2, Q6V1P9]
pKd (APBA1_1, Q02410; [1]): below the threshold | pKd (APBA1_2, Q02410; [1]): below the threshold | pKd (ARHGEF11, O15085; [1]): below the threshold | pKd (DLG3_2, Q92796; [1]): 3.59 | pKd (DVL3, Q92997; [1]): below the threshold | pKd (FRMPD3, Q5JV73; [1]): below the threshold | pKd (GRASP, Q7Z6J2; [1]): below the threshold | pKd (GRIP1_3, Q9Y3R0; [1]): below the threshold | pKd (GRIP1_5, Q9Y3R0; [1]): below the threshold | pKd (GRIP2_4, Q9C0E4; [1]): below the threshold | pKd (GRIP2_5, Q9C0E4; [1]): below the threshold | pKd (Inadl_4, Q8NI35; [1]): below the threshold | pKd (LIN7B, Q9HAP6; [1]): 3.48 | pKd (LNX1_1, Q8TBB1; [1]): below the threshold | pKd (LNX1_3, Q8TBB1; [1]): below the threshold | pKd (PARD3B_1, Q8TEW8; [1]): 3.89 | pKd (PARD3_3, Q8TEW0; [1]): 4.74 | pKd (PDZD7_3, Q9H5P4; [1]): below the threshold | pKd (PDZRN3_1, Q9UPQ7; [1]): below the threshold | pKd (RAPGEF6, Q8TEU7; [1]): below the threshold | pKd (SCRIB_2, Q14160; [1]): below the threshold | pKd (SNTG2, Q9NY99; [1]): below the threshold | pKd (TX1BP3, O14907; [1]): below the threshold

SSIDLWETAL [SLC15A5, A6NIM6]
pKd (APBA1_1, Q02410; [2]): below the threshold | pKd (APBA1_2, Q02410; [2]): 4.29 | pKd (ARHGEF11, O15085; [2]): 5.24 | pKd (DLG3_2, Q92796; [2]): 4.28 | pKd (DVL3, Q92997; [2]): below the threshold | pKd (FRMPD3, Q5JV73; [2]): 4.31 | pKd (GRASP, Q7Z6J2; [2]): 5.28 | pKd (GRIP1_3, Q9Y3R0; [2]): below the threshold | pKd (GRIP1_5, Q9Y3R0; [2]): below the threshold | pKd (GRIP2_4, Q9C0E4; [2]): below the threshold | pKd (GRIP2_5, Q9C0E4; [2]): below the threshold | pKd (Inadl_4, Q8NI35; [2]): below the threshold | pKd (LIN7B, Q9HAP6; [2]): 4.92 | pKd (LNX1_1, Q8TBB1; [2]): 3.97 | pKd (LNX1_3, Q8TBB1; [2]): below the threshold | pKd (PARD3B_1, Q8TEW8; [2]): 4.49 | pKd (PARD3_3, Q8TEW0; [2]): 4.44 | pKd (PDZD7_3, Q9H5P4; [2]): 5.56 | pKd (PDZRN3_1, Q9UPQ7; [2]): 5.87 | pKd (RAPGEF6, Q8TEU7; [2]): below the threshold | pKd (SCRIB_2, Q14160; [2]): 5.14 | pKd (SNTG2, Q9NY99; [2]): 5.2 | pKd (TX1BP3, O14907; [2]): 5.24

PPRQRSETQV [HPV82-E6, Q9IR59]
pKd (APBA1_1, Q02410; [2]): below the threshold | pKd (APBA1_2, Q02410; [2]): below the threshold | pKd (ARHGEF11, O15085; [2]): 3.74 | pKd (DLG3_2, Q92796; [2]): 4.98 | pKd (DVL3, Q92997; [2]): below the threshold | pKd (FRMPD3, Q5JV73; [2]): below the threshold | pKd (GRASP, Q7Z6J2; [2]): below the threshold | pKd (GRIP1_3, Q9Y3R0; [2]): below the threshold | pKd (GRIP1_5, Q9Y3R0; [2]): below the threshold | pKd (GRIP2_4, Q9C0E4; [2]): below the threshold | pKd (GRIP2_5, Q9C0E4; [2]): below the threshold | pKd (Inadl_4, Q8NI35; [2]): below the threshold | pKd (LIN7B, Q9HAP6; [2]): below the threshold | pKd (LNX1_1, Q8TBB1; [2]): below the threshold | pKd (LNX1_3, Q8TBB1; [2]): below the threshold | pKd (PARD3B_1, Q8TEW8; [2]): below the threshold | pKd (PARD3_3, Q8TEW0; [2]): below the threshold | pKd (PDZD7_3, Q9H5P4; [2]): 3.84 | pKd (PDZRN3_1, Q9UPQ7; [2]): 3.81 | pKd (RAPGEF6, Q8TEU7; [2]): below the threshold | pKd (SCRIB_2, Q14160; [2]): 4.26 | pKd (SNTG2, Q9NY99; [2]): 4 | pKd (TX1BP3, O14907; [2]): 4.14
